Measurements from paper PMC2913173 (Journal of molecular biology, 2009).
Ends that are not written are not given here. eCPX = enhanced circularly permuted OmpX display protein

Molecular target: T1, Bcl-xL (Homo sapiens, UniProt Q07817, DEL46-85)
Assay: not given
Settings: L78A amino acid change relative to Bak(72–87); cited from earlier work

Substance | Decrease in binding affinity of Bak(72–87) for Bcl-xL [fold]
L78A: Bak(72–87) with the critical leucine in position 78 changed to alanine, displayed on eCPX (GQVGRQAAIIGDDINR-eCPX) [Construct L78A] | ~1000

Molecular target: T1, Bcl-xL
Assay: Cell surface display equilibrium binding assay with flow cytometry
Settings: cells displaying Bak–eCPX fusions, biotinylated Bcl-xL and SAPE

Substance | Binding to Bcl-xL in words (fluorescence of cell population)
Bak(72–85): Bak(72–87) with deletion of residues N86 and R87, eCPX fusion (GQVGRQLAIIGDDI-eCPX) | reduction in binding to nearly background levels
Bak(72–117): eCPX fusion protein comprising helices α3 and α4 of Bak (GQVGRQLAIIGDDINRRYDSEFQTMLQHLQPTAENAYEYFTKIATS-eCPX) | fluorescence only slightly above background levels
Bak(74–87) GG: eCPX–Bak(74–87) in which the GQ sequence preceding the Bak peptide was changed to GG (GGVGRQLAIIGDDINR-eCPX) | bound Bcl-xL equally as well as Bak(72–87)
L78A: Bak(72–87) with the critical leucine in position 78 changed to alanine, displayed on eCPX (GQVGRQAAIIGDDINR-eCPX) [Construct L78A] | only background fluorescence
mut7: Bak(72–87) library variant: position 74 L, 78 L, 81 L, 85 F (GQLGRQLAILGDDFNR-eCPX) | highest fluorescence
mut8: Bak(72–87) library variant: position 74 L, 78 L, 81 F, 85 F (GQLGRQLAIFGDDFNR-eCPX) | highest fluorescence
